Here are results for four molecules from US20200392236A1 (JUNO THERAPEUTICS, published 2020).

Assay [1] addresses T1, human BCMA amino acid residues 1-54 (linear and conformational CLIPS peptide libraries) (human, UniProt Q02223 1-54).
T1 sequence: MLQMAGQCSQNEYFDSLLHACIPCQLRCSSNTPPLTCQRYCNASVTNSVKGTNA
Kind of assay: CLIPS peptide array ELISA. As to the method:
Epitopes recognized, e.g., specifically bound to, by exemplary anti-BCMA scFv clones (BCMA-1, BCMA-5, BCMA-9, BCMA-23, BCMA-25, BCMA-26, BCMA-52 and BCMA-55 anti-BCMA scFvs), were assessed using full discontinuous epitope mapping by Chemical Linkage of Peptides onto Scaffolds (CLIPS; Pepscan Presto BV, Lelystad, The Netherlands; see, e.g., Timmerman et al., (2007) J. Mol. Recognit. 20: 283-329). Mapping was carried out using anti-BCMA scFv clones, such as those fused with mouse Fc (scFv-mFc).
Linear and conformational peptide libraries of amino acid residues 1-54 of human BCMA (set forth as amino acid residues 1-54 of SEQ ID NO:367) were generated based on a combinatorial matrix design. Linear peptides and structural mimetics including single loop, α-helix, β-turn, combinatorial and linear disulfide bridge mimics, and discontinuous epitope mimics were used, along with positive and negative control peptides, on an amino-functionalized solid support.
Affinities for binding to the peptides in the epitope library were determined using ELISA. The peptide arrays were incubated with a solution containing the scFv overnight at 4° C. Affinity information was used in iterative screens to define the sequence and conformation of epitopes. Heat maps of affinity information for two or more loops were generated.
For orientation: An ELISA detects its analyte on a solid surface through an enzyme-linked reagent.

Assay [2] addresses T2, human BCMA (B-cell maturation antigen) on cells (human, UniProt Q02223 1-184).
T2 construct: whole, on cells; also called hBCMA; hBCMA/HEK293 cell line
T2 sequence (looked up): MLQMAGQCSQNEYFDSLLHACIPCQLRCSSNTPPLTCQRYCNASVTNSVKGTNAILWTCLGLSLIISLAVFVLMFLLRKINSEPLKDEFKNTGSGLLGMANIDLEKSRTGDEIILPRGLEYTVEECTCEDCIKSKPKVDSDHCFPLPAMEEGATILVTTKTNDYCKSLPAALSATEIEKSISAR
Description: flow cytometry on hBCMA-expressing HEK293 cells. In general terms: A flow cytometer gives signals particle by particle.

B1: BCMA-52-scFv-mFc (Fc fusion)
chain: SYELTQPPSASGTPGQRVTMSCSGTSSNIGSHSVNWYQQLPGTAPKLLIYTNNQRPSGVPDRFSGSKSGTSASLAISGLQSEDEADYYCAAWDGSLNGLVFGGGTKLTVLGSRGGGGSGGGGSGGGGSLEMAEVQLVQSGAEVKKPGESLKISCKGSGYSFTSYWIGWVRQMPGKGLEWMGIIYPGDSDTRYSPSFQGHVTISADKSISTAYLQWSSLKASDTAMYYCARYSGSFDNWGQGTLVTVSS
notes: scFv fused with mouse Fc; The order scFv then Fc follows the label; also called BCMA-52 anti-BCMA scFv; not shown: mouse Fc (mFc)
With B1, the binding result in assay [1] is listed as “binds”.

B2: BCMA-26 anti-BCMA scFv (scFv)
scFv: EVQLVESGGGLVKPGGSLRLSCAASGFTFSDYYMSWIRQAPGKGLEWVSYISSSGSTIYYADSVKGRFTISRDNAKNSLYLQMNSLRAEDTAVYYCAKVDGPPSFDIWGQGTMVTVSSGGGGSGGGGSGGGGSSYVLTQPPSVSVAPGQTARITCGANNIGSKSVHWYQQKPGQAPMLVVYDDDDRPSGIPERFSGSNSGNTATLTISGVEAGDEADYFCHLWDRSRDHYVFGTGTKLTVL
notes: VH-(G4S)3-VL scFv
Turning to B2, the binding result in assay [1] is “binds”.

B3: BCMA-55-scFv-mFc (Fc fusion)
chain: QSALTQPASVSASPGQSIAISCTGTSSDVGWYQQHPGKAPKLMIYEDSKRPSGVSNRFSGSKSGNTASLTISGLQAEDEADYYCSSNTRSSTLVFGGGTKLTVLGSRGGGGSGGGGSGGGGSLEMAEVQLVQSGAEMKKPGASLKLSCKASGYTFIDYYVYWMRQAPGQGLESMGWINPNSGGTNYAQKFQGRVTMTRDTSISTAYMELSRLRSDDTAMYYCARSQRDGYMDYWGQGTLVTVSS
notes: scFv fused with mouse Fc; The order scFv then Fc follows the label; also called BCMA-55 anti-BCMA scFv; not shown: mouse Fc (mFc)
On to B3, for which the binding result in assay [1] is given as “binds”.

B4: BCMA-16 anti-BCMA scFv (scFv)
scFv: EVQLVQSGPEVKKPGTSVKVSCKASGFTFTSSAMQWVRQARGQRLEWIGWIVVGSGNTNYAQKFQERVTITRDMSTSTAYMELSSLRSEDTAVYYCAAAPYYDILTGYYLWGQGTLVTVSSGGGGSGGGGSGGGGSQSALTQPPSASGTPGQRVTISCSGSGSNIGSNDVSWYQQIPGTAPKLLIYWNDQRPSGVPDRFSGSKSGTSASLAISGLQSEDEADYYCASWDDSLSGWVFGGGTKLTVL
notes: VH-(G4S)3-VL scFv
Take B4: in assay [2], the binding result is “no binding”.
